Results: article PMC3664939, “Structure of the Catalytic Region of DNA Ligase IV in Complex with an Artemis Fragment Sheds Light on Double-Strand Break Repair” (Structure(London, England:1993), 2013)

Target: T1, DNA ligase IV catalytic region (residues 1–609) (human, UniProt P49917 1-609)
T1 construct: Cloned in pOPINS; whether the His6-Sumo tag was removed is told only in the Supplemental Experimental Procedures; the derivative crystals carry nine mercury atoms from thiomersal; the methods point to the recombinant construct for the crystals; also called catalytic region of LigIV
T1 sequence (looked up): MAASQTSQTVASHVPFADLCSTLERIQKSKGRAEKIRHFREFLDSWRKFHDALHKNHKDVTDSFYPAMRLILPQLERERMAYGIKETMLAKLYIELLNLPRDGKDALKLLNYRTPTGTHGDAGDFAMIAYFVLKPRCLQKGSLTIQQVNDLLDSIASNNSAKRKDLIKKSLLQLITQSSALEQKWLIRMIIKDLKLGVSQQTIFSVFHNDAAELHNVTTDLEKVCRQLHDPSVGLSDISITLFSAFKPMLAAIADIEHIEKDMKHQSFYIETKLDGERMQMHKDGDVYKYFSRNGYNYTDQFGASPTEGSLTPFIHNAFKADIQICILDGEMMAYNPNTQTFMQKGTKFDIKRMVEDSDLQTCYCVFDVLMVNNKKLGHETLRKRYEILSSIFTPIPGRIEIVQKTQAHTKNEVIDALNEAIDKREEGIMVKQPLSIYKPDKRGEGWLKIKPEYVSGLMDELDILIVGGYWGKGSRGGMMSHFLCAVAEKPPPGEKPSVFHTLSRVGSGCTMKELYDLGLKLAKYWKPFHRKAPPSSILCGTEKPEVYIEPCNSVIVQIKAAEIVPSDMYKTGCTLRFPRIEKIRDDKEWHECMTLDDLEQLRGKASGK
Assay: crystal structure; vapor diffusion, 100 mM MES (pH 5.6–5.7), 2.0 M (NH4)2SO4, 10 mM YCl3; native crystals and crystals soaked in 1 mM thiomersal
Conditions: both partners purified

B1: Artemis peptide (residues 485–495) (peptide, UniProt Q96SD1 485-495, looked up)
peptide: DVPQWEVFFKR
notes: holds P487, W489, F492 and F493; also called Artemis fragment; source: synthetic peptide (PNAC facility, Department of Biochemistry, University of Cambridge)
- binding result: binds
